Positions count from the first letter of the chain named.
What was measured:
[1] = biological target: T1, human OX40 on HEK293F cells (human, UniProt P43489 29-277); assay: flow cytometry, transfected HEK293F cells [Cont.]
T1 construct: whole, on cells
T1 sequence (looked up): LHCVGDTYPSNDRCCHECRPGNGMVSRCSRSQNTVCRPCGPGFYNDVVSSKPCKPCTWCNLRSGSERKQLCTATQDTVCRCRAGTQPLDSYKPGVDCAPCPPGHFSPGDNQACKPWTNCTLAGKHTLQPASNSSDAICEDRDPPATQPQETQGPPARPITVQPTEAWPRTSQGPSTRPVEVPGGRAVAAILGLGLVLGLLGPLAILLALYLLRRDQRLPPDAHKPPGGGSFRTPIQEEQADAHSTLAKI
Description: (§1) Antibody selectivity was next examined. Human CTLA4, PD1, LAG3, Tim3, B7H3, CD95, TNFR1, OX40, CD40, PD-L1, BLTA, VISTA, PDL2, ICOS and B7H4 were transiently overexpressed on the surface of HEK293F cells. Transfected cells were washed in pre-chilled 1×PBSA buffer (1.76 mM KH2PO4, 10.14 mM Na2HPO4.12H2O, 2.68 mM KCl, 136.89 mM NaCl and 1% BSA), then incubated with 100 nM test antibodies for 1 hour on ice. Cells were washed once with staining buffer, and Alexa Fluor® 647 conjugated mouse anti-human FC antibodies were added and incubated for 30 minutes on ice, protected from light. Samples were washed once with staining buffer prior to analysis by flow cytometry.

[2] = biological target: T2, human CD95 on HEK293F cells (human, UniProt P25445 26-335); assay: flow cytometry, transfected HEK293F cells [Cont.]
T2 construct: whole, on cells
T2 sequence (looked up): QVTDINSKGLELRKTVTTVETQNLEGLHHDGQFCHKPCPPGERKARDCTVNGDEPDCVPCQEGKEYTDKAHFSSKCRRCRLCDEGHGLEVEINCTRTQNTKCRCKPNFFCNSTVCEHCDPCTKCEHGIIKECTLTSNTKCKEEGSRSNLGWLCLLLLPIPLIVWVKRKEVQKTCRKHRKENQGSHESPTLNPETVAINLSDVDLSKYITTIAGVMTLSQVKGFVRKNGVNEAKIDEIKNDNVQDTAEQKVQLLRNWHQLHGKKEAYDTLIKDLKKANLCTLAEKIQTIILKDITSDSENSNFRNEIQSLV
Description: as §1

[3] = biological target: T3, human LAG3 on HEK293F cells (human, UniProt P18627 23-525); assay: flow cytometry, transfected HEK293F cells [Cont.]
T3 construct: whole, on cells
T3 sequence (looked up): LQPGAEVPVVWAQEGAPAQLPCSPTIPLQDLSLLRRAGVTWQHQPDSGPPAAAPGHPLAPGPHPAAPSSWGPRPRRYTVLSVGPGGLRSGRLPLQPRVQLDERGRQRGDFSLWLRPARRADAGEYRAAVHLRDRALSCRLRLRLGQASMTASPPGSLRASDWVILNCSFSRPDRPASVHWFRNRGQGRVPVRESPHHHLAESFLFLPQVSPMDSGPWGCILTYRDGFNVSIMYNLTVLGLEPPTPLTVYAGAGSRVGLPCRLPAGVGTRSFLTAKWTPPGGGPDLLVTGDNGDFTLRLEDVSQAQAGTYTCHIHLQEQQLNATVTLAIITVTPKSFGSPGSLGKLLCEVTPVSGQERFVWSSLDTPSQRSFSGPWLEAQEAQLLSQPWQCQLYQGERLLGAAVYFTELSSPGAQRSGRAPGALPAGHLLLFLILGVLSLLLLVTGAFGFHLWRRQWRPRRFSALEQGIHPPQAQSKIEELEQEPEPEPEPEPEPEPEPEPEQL
Description: as §1

[4] = biological target: T4, full-length human CTLA4 expressed on cells (human, UniProt P16410 36-223); assay: flow cytometry, transfected HEK293F cells, 100 nM antibody
T4 construct: whole, on cells; also called HEK293F/hCTLA-4 cells; HEK293F/hCTLA4 cells
T4 sequence (looked up): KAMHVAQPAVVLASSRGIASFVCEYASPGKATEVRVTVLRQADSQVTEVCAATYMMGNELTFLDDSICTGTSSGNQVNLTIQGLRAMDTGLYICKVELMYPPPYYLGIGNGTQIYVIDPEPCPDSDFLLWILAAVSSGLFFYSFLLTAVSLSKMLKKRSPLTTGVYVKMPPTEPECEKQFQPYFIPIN
Description: as §1

[5] = biological target: T3, human LAG3 on HEK293F cells; assay: as above
Description: as §1

[6] = biological target: T5, human PD1 on HEK293F cells (human, UniProt Q15116 25-288); assay: as above
T5 construct: whole, on cells
T5 sequence (Q15116 25-288): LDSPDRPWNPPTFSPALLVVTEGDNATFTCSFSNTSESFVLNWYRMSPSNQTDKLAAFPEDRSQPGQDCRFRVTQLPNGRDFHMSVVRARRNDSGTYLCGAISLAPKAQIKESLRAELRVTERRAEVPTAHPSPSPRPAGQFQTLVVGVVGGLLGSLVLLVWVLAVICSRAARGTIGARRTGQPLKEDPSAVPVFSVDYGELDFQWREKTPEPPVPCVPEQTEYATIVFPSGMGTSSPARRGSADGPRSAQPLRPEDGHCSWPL
Description: as §1

[7] = biological target: T1, human OX40 on HEK293F cells; assay: as above
Description: as §1

[8] = biological target: T2, human CD95 on HEK293F cells; assay: as above
Description: as §1

[9] = biological target: T1, human OX40 on HEK293F cells; assay: flow cytometry, transfected HEK293F cells
[10] = biological target: T6, human Tim3 on HEK293F cells (human, UniProt Q8TDQ0 22-301); assay: flow cytometry, transfected HEK293F cells
T6 construct: whole, on cells
T6 sequence (looked up): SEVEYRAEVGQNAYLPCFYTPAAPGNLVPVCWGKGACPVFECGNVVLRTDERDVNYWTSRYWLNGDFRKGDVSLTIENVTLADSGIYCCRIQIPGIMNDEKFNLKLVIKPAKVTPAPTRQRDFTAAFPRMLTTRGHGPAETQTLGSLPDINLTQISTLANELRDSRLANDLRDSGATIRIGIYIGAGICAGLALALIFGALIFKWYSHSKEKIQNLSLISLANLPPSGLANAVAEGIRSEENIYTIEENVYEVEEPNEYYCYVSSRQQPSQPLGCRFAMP

B1: TY21591 (antibody, V domains shown)
VH: EVQLVESGGGLVQPGGSLRLSCAASGFSLSTGGVAVSWIRQAPGKGLEWIGEIYHSGSTYYSPSLKSRVTISRDNSKNTLYLQLNSLRAEDTAVYYCARRIATATYFDYWGQGTLVTVSS
VL: DIQLTQSPSSLSASVGDRVTITCRASQTVFSRYLAWYQQKPGKAPKLLIYDASNRATGIPSRFSGSGSGTDFTLTISSLQPEDFATYYCQQSYYWPPWTFGQGTKVEIK
notes: human IgG1 (hIgG1) from Fab hit B15756
binding result [1]: no binding (tested: 100 nM)
binding result [2]: no binding (tested: 100 nM)

B2: TY21687 (antibody, V domains shown)
VH: EVQLVESGGGLVQPGGSLRLSCAASGFTFSGYAIHWVRQAPGKGLEWIGIISPSGGGTKYAQKFQGRVTISRDNSKNTLYLQLNSLRAEDTAVYYCARHPFAYWGQGTLVTVSS
VL: DIQLTQSPSSLSASVGDRVTITCRASQSVDFYGISFLDWYQQKPGKAPKLLIYDASNRATGIPSRFSGSGSGTDFTLTISSLQPEDFATYYCQQYVSSPPEYTFGQGTKVEIK
notes: human IgG1 (hIgG1) from Fab hit B15700
binding result [3]: no binding (tested: 100 nM)

B3: TY21585 (antibody, V domains shown)
VH: EVQLVESGGGLVQPGGSLRLSCAASGFTFSDYAIHWVRQAPGKGLEWIGIISPSSGSTNYAQKFQGRVTISRDNSKNTLYLQLNSLRAEDTAVYYCARDIHSGSSGYYYGFDVWGQGTLVTVSS
VL: B2 VL with Q27E, Y32F, D38A, Q94H, V96T, E101V
notes: human IgG1 (hIgG1) from Fab hit B15709
% of cells in upper right quadrant (Q2) [4]: 30.4%
% of cells in upper right quadrant (Q2) [5]: 0.66%
% of cells in upper right quadrant (Q2) [6]: 1.33%
% of cells in upper right quadrant (Q2) [7]: 0.43
Mean [7]: 10500
% of cells in upper right quadrant (Q2) [8]: 0.23
Mean [8]: 6720
binding result [9]: no binding (tested: 100 nM)

B4: TY21691 (antibody, V domains shown)
VH: EVQLVESGGGLVQPGGSLRLSCAASGFTFSDYAIHWVRQAPGKGLEWIGIISPSGGSTKYAQKFQGRVTISRDNSKNTLYLQLNSLRAEDTAVYYCARLGYGYFDVWGQGTLVTVSS
VL: DIQLTQSPSSLSASVGDRVTITCRASQSVDFYGISFLHWYQQKPGKAPKLLIYDASSLESGVPSRFSGSGSGTDFTLTISSLQPEDFATYYCVQALQLPLTFGQGTKVEIK
notes: human IgG1 (hIgG1) from Fab hit B15736
binding result [10]: no binding (tested: 100 nM)

From patent publication US20190241662A1 (ADAGENE, published 2019)
